{"source": "paper doi:10.1101/2022.07.22.501112", "about": "(2022)", "molecular_target": "T1, E. coli expressed BAHD1(aa:588-780) (UniProt Q8TBE0 588-780)", "T1 chain": "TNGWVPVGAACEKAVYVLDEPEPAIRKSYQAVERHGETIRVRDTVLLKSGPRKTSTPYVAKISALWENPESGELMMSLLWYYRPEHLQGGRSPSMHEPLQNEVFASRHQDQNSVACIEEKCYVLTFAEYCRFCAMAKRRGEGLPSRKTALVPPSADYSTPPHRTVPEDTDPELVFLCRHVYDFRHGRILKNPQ", "test": "FP", "note": "Numbered stars: 1 amine (or outer) side, 2 acyl side, 3 side chain; on linkers, the order of the positions; unused ones are H or OH. Square brackets hold non-standard residues; d marks the D form. Ends that are not written are not given here. Lys(Me3) = C[N+](C)(C)CCCC[C@H](N)C(=O)O; Ethylenediamine = C(CN[*:2])N[*:1]; 5‑FAM = fluorescent label"}
{"binder": "PRKQLATKAAR[Lys(Me3)]SAPATGG-{Ethylenediamine-4‑Abu-5‑FAM}", "note": "[H3 16-35 K27me3 peptide]", "values": [{"measurement": "Kd", "result": 700, "unit": "nM"}]}
